According to paper PMC2987719:

What was measured:
Conditions in all cases: remark: other sources report otherwise
[1] = target: myc-LRRK2 (human wild-type full-length leucine rich repeat kinase 2, myc-tagged) (human) (UniProt Q5S007); assay: SEC
[2] = target: myc-LRRK2 (human wild-type full-length leucine rich repeat kinase 2, myc-tagged) (human) (UniProt Q5S007); assay: glycerol velocity gradient
[3] = target: myc-LRRK2 (human wild-type full-length leucine rich repeat kinase 2, myc-tagged) (human) (UniProt Q5S007); assay: native gel or EMSA

stoichiometry N [1]: 2 | stoichiometry N [2]: 2 | stoichiometry N [3]: 2
Substance: myc-LRRK2 (human wild-type full-length leucine rich repeat kinase 2, myc-tagged), Q5S007 1-2527
